B1: DYRK1B (parent)
chain: KKVLNHGYDDDNHDYIVRSGERWL
B2: CCDC6 (parent)
chain: FTPPTSLTRAGMSYYNSPGLHVQH

Consider 94 variants from the supplement of paper PMC10567573.
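Note: lentivirally expressed fusions sorted by FACS into six bins by GFP to DsRed ratio, PSI derived from sequencing read proportions per bin multiplied by bin number.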

In one data set the parent is B1. Description: protein stability index of a GFP-peptide fusion (GPS, HEK-293T) (PSI 1-6); higher = more stable. Conditions: c terminus: a fixed tail appended.
Consider KKVLNHGYDDDNHDYIVRSKERWL [G20K], for which the protein stability index stood at 3.32.

Turning to KKVLNHGYDDDNHDYIVYSGERWL [R18Y], the protein stability index worked out at 2.48.

Turning to KKVLNHGYDDDNHDYIVRSGEPWL [R22P], the protein stability index was determined as 3.16.

As to KKVLNHGYDDDNHDYIVRSGETWL [R22T], the protein stability index was 2.83.

With KKVLNHGYDDDNHDYIVRSGEKWL [R22K], the protein stability index is 3.29.

As for KKVLNHGYDDDNHDYIVRSGEWWL [R22W], the protein stability index stood at 2.06.

Regarding KKVLNHGYDDDNHDYIVRSGEYWL [R22Y], the protein stability index came to 2.52.

In the case of KKVLNHGYDDDNHDYIVRSGEGWL [R22G], the protein stability index is 3.19.

As for KKVLNHGYDDDNHDYIVRSGEFWL [R22F], the protein stability index amounted to 1.91.

Take KKVLNHGYDDDNHDYIVRSGESWL [R22S]: the protein stability index worked out at 3.35.

Take KKVLNHGYDDDNHDYIVRSGEDWL [R22D]: the protein stability index is 3.44.

In the case of KKVLNHGYDDDNHDYIVRSGEQWL [R22Q], the protein stability index was 3.53.

Turning to KKVLNHGYDDDNHDYIVRSGEMWL [R22M], the protein stability index is 2.57.

In the case of KKVLNHGYDDDNHDYIVRSGENWL [R22N], the protein stability index was determined as 3.31.

In the case of KKVLNHGYDDDNHDYIVRSGEIWL [R22I], the protein stability index was determined as 2.17.

KKVLNHGYDDDNHDYIVRSGEAWL [R22A]: the protein stability index was 3.15.

With KKVLNHGYDDDNHDYIVRSGEVWL [R22V], the protein stability index was 2.6.

In the case of KKVLNHGYDDDNHDYIVRSGECWL [R22C], the protein stability index is 2.85.

KKVLNHGYDDDNHDYIVRSGEEWL [R22E]: the protein stability index stood at 3.58.

As for KKVLNHGYDDDNHDYIVRSGEHWL [R22H], the protein stability index was determined as 3.13.

With KKVLNHGYDDDNHDYIVRSGELWL [R22L], the protein stability index amounted to 2.25.

The variants in another data set derive from B2. The description is as above. Conditions: c terminus: a fixed tail appended.
FTNPTSLTRAGMSYYNSPGLHVQH [P3N]: the protein stability index was found to be 2.02.

As to FTIPTSLTRAGMSYYNSPGLHVQH [P3I], the protein stability index was 1.63.

In the case of FTFPTSLTRAGMSYYNSPGLHVQH [P3F], the protein stability index turned out to be 1.95.

Take FTEPTSLTRAGMSYYNSPGLHVQH [P3E]: the protein stability index was 2.16.

As for FTSPTSLTRAGMSYYNSPGLHVQH [P3S], the protein stability index turned out to be 2.1.

As to FTMPTSLTRAGMSYYNSPGLHVQH [P3M], the protein stability index worked out at 1.87.

On to FTRPTSLTRAGMSYYNSPGLHVQH [P3R], for which the protein stability index came to 2.14.

As for FTGPTSLTRAGMSYYNSPGLHVQH [P3G], the protein stability index amounted to 2.07.

As to FTQPTSLTRAGMSYYNSPGLHVQH [P3Q], the protein stability index was 2.32.

FTVPTSLTRAGMSYYNSPGLHVQH [P3V]: the protein stability index turned out to be 2.08.

As for FTCPTSLTRAGMSYYNSPGLHVQH [P3C], the protein stability index is 2.

With FTTPTSLTRAGMSYYNSPGLHVQH [P3T], the protein stability index came to 2.35.

Consider FTKPTSLTRAGMSYYNSPGLHVQH [P3K], for which the protein stability index was 2.78.

As for FTLPTSLTRAGMSYYNSPGLHVQH [P3L], the protein stability index was found to be 1.98.

Turning to FTWPTSLTRAGMSYYNSPGLHVQH [P3W], the protein stability index was found to be 1.21.

On to FTHPTSLTRAGMSYYNSPGLHVQH [P3H], for which the protein stability index was 1.79.

FTAPTSLTRAGMSYYNSPGLHVQH [P3A]: the protein stability index came to 1.73.

For FTDPTSLTRAGMSYYNSPGLHVQH [P3D], the protein stability index came out at 2.1.

Consider FTYPTSLTRAGMSYYNSPGLHVQH [P3Y], for which the protein stability index was 1.93.

On to FTPCTSLTRAGMSYYNSPGLHVQH [P4C], for which the protein stability index was determined as 2.3.

In the case of FTPNTSLTRAGMSYYNSPGLHVQH [P4N], the protein stability index was found to be 3.07.

On to FTPLTSLTRAGMSYYNSPGLHVQH [P4L], for which the protein stability index worked out at 4.29.

As to FTPATSLTRAGMSYYNSPGLHVQH [P4A], the protein stability index turned out to be 1.15.

For FTPETSLTRAGMSYYNSPGLHVQH [P4E], the protein stability index was 1.99.

Turning to FTPFTSLTRAGMSYYNSPGLHVQH [P4F], the protein stability index came to 1.97.

For the variant FTPVTSLTRAGMSYYNSPGLHVQH [P4V], the protein stability index came out at 2.5.

In the case of FTPDTSLTRAGMSYYNSPGLHVQH [P4D], the protein stability index is 2.23.

Consider FTPSTSLTRAGMSYYNSPGLHVQH [P4S], for which the protein stability index stood at 1.42.

Consider FTPYTSLTRAGMSYYNSPGLHVQH [P4Y], for which the protein stability index came to 3.21.

On to FTPQTSLTRAGMSYYNSPGLHVQH [P4Q], for which the protein stability index was found to be 2.48.

As for FTPITSLTRAGMSYYNSPGLHVQH [P4I], the protein stability index came to 1.51.

As for FTPMTSLTRAGMSYYNSPGLHVQH [P4M], the protein stability index was 2.04.

FTPRTSLTRAGMSYYNSPGLHVQH [P4R]: the protein stability index is 1.83.

FTPHTSLTRAGMSYYNSPGLHVQH [P4H]: the protein stability index stood at 2.19.

As to FTPTTSLTRAGMSYYNSPGLHVQH [P4T], the protein stability index was determined as 2.27.

Consider FCPPTSLTRAGMSYYNSPGLHVQH [T2C], for which the protein stability index came to 1.91.

For FRPPTSLTRAGMSYYNSPGLHVQH [T2R], the protein stability index is 2.17.

Regarding FPPPTSLTRAGMSYYNSPGLHVQH [T2P], the protein stability index is 2.26.

For the variant FQPPTSLTRAGMSYYNSPGLHVQH [T2Q], the protein stability index was 1.91.

As to FWPPTSLTRAGMSYYNSPGLHVQH [T2W], the protein stability index is 2.67.

With FMPPTSLTRAGMSYYNSPGLHVQH [T2M], the protein stability index was 2.6.

Consider FDPPTSLTRAGMSYYNSPGLHVQH [T2D], for which the protein stability index was 2.1.

For the variant FGPPTSLTRAGMSYYNSPGLHVQH [T2G], the protein stability index is 2.47.

Consider FIPPTSLTRAGMSYYNSPGLHVQH [T2I], for which the protein stability index was found to be 2.6.

Take FAPPTSLTRAGMSYYNSPGLHVQH [T2A]: the protein stability index is 1.84.

For FHPPTSLTRAGMSYYNSPGLHVQH [T2H], the protein stability index turned out to be 1.85.

Turning to FYPPTSLTRAGMSYYNSPGLHVQH [T2Y], the protein stability index was determined as 1.69.

As for FFPPTSLTRAGMSYYNSPGLHVQH [T2F], the protein stability index turned out to be 1.48.

FNPPTSLTRAGMSYYNSPGLHVQH [T2N]: the protein stability index is 1.55.

Take FEPPTSLTRAGMSYYNSPGLHVQH [T2E]: the protein stability index was found to be 2.83.

In the case of FLPPTSLTRAGMSYYNSPGLHVQH [T2L], the protein stability index is 1.87.

For the variant FKPPTSLTRAGMSYYNSPGLHVQH [T2K], the protein stability index stood at 1.79.

As to FSPPTSLTRAGMSYYNSPGLHVQH [T2S], the protein stability index was determined as 1.5.

On to FVPPTSLTRAGMSYYNSPGLHVQH [T2V], for which the protein stability index was determined as 1.96.

With CTPPTSLTRAGMSYYNSPGLHVQH [F1C], the protein stability index turned out to be 1.52.

Consider LTPPTSLTRAGMSYYNSPGLHVQH [F1L], for which the protein stability index is 1.89.

For RTPPTSLTRAGMSYYNSPGLHVQH [F1R], the protein stability index amounted to 2.19.

For the variant NTPPTSLTRAGMSYYNSPGLHVQH [F1N], the protein stability index turned out to be 2.88.

Consider MTPPTSLTRAGMSYYNSPGLHVQH [F1M], for which the protein stability index turned out to be 3.01.

Consider GTPPTSLTRAGMSYYNSPGLHVQH [F1G], for which the protein stability index came to 2.54.

Regarding ETPPTSLTRAGMSYYNSPGLHVQH [F1E], the protein stability index turned out to be 2.85.

Regarding STPPTSLTRAGMSYYNSPGLHVQH [F1S], the protein stability index came to 2.01.

Turning to HTPPTSLTRAGMSYYNSPGLHVQH [F1H], the protein stability index amounted to 2.9.

As to ITPPTSLTRAGMSYYNSPGLHVQH [F1I], the protein stability index is 2.46.

With PTPPTSLTRAGMSYYNSPGLHVQH [F1P], the protein stability index stood at 2.82.

As to DTPPTSLTRAGMSYYNSPGLHVQH [F1D], the protein stability index worked out at 3.56.

As for WTPPTSLTRAGMSYYNSPGLHVQH [F1W], the protein stability index turned out to be 2.14.

With KTPPTSLTRAGMSYYNSPGLHVQH [F1K], the protein stability index is 2.49.

Consider YTPPTSLTRAGMSYYNSPGLHVQH [F1Y], for which the protein stability index was 1.91.

Consider ATPPTSLTRAGMSYYNSPGLHVQH [F1A], for which the protein stability index was 2.65.

With QTPPTSLTRAGMSYYNSPGLHVQH [F1Q], the protein stability index was 2.64.

With TTPPTSLTRAGMSYYNSPGLHVQH [F1T], the protein stability index worked out at 2.94.

With VTPPTSLTRAGMSYYNSPGLHVQH [F1V], the protein stability index was found to be 2.41.
